Molecular target: T1, transmembrane serine protease 2 (TMPRSS2) ectodomain (human, UniProt O15393 106-492)
T1 construct: Transmembrane serine protease 2 (TMPRSS2), ectodomain; also called TMRPSS2; source: purified
Experiment: BLI; bio-layer interferometry titrations of RBD-TMPRSS2; which partner was immobilised and the conditions are not told
Settings: both partners purified

T1 sequence (O15393 106-492): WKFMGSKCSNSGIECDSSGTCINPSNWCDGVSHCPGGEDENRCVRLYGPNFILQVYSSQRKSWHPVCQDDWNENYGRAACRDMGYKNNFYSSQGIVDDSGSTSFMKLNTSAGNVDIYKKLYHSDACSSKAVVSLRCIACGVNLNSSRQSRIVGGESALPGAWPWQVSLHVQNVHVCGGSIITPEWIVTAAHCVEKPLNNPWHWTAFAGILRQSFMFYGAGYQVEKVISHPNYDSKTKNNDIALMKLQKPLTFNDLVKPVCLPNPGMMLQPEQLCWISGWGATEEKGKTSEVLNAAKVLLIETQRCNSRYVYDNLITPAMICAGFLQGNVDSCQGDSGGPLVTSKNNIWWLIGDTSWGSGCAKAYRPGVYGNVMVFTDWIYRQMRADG

B1: HKU1-B (1B) spike S1 receptor-binding domain (domain or fragment)
chain: NLPDCDIDNWLNNVSVPSPLNWERRIFSNCNFNLSTLLRLVHVDSFSCNNLDKSKIFGSCFNSITVDKFAIPNRRRDDLQLGSSGFLQSSNYKIDISSSSCQLYYSLPLVNVTINNFNPSSWNRRYGFGSFNLSSYDVVYSDHCFSVNSDFCPCADPSVVNSCAKSKPPSAICPAGTKYRHCDLDTTLYVKNWCRCSCLPDPISTYSPNTCPQKKVVVGIGEHCPGLGINEEKCGTQLNHSSCFCSPDAFLGWSFDSCISNNRCNIFSNFIFNGINSGTTCSNDL
modifications: N-glycosylated; disulfides C504-C518 and C520-C533. Construct limits are only in the schematic (Fig. 1a), so they are taken from the paper's own deposited entity 8YQQ; the assayed construct may …
**Q.** For B1, which Kd is on record?
**A.** 0.17 µM

B2: HKU1-A (1A) spike S1 receptor-binding domain (domain or fragment)
chain: SGFTVKPVATVHRRIPDLPDCDIDKWLNNFNVPSPLNWERKIFSNCNFNLSTLLRLVHTDSFSCNNFDESKIYGSCFKSIVLDKFAIPNSRRSDLQLGSSGFLQSSNYKIDTTSSSCQLYYSLPAINVTINNYNPSSWNRRYGFNNFNLSSHSVVYSRYCFSVNNTFCPCAKPSFASSCKSHKPPSASCPIGTNYRSCESTTVLDHTDWCRCSCLPDPITAYDPRSCSQKKSLVGVGEHCAGFGVDEEKCGVLDGSYNVSCLCSTDAFLGWSYDTCVSNNRCNIFSNFILNGINSGTTCSNDLLQPNTEVFTDVCVDYDLYGITGQGIFKEVSAVYYNSWQNLLYDSNGNIIGFKDFVTNKTYNIFPCYAG
modifications: N-glycosylated; disulfides C504-C518 and C520-C533. Construct limits are only in the schematic (Fig. 1a), so they are taken from the paper's own deposited entity 8YOY (start and end shown match …)
**Q.** For B2, which Kd is on record?
**A.** 0.323 µM
